Assay: soluble on expression in E. coli; label from the status in PepcDB or PDB records
With “LLVVGPKFIRANQEYTLVISNFNSQLSKVDLLLKLEGETDNGLSVLNVTKMVDVRRNMNRMINFNMPEDLTAGNYKITIDGQRGFSFHKEAELVYLSKSISGLIQVDKPVFKPGDTVNFRVIVLDTELKPPARVKSVYVTIRDPQRNVIRKWSTAKLYAGVFESDLQIAPTPMLGVWNISVEVEGEELVSKTFEVKEYVLSTFDVQVMPSVIPLEEHQAVNLTIEANYHFGKPVQGVAKVELYLDDDKLKLKKELTVYGKGQVELRFDNFAMDADQQDVPVKVSFVEQYTNRTVVKQSQITVYRYAYRVELIKESPQFRPGLPFKCALQFTHHDGTPAKGISGKVEVSDVRFETTTTSDNDGLIKLELQPSEGTEQLSIHFNAVDGFFFYEDVNKVETVTDAYIKLELKSPIKRNKLMRFMVTCTERMTFFVYYVMSKGNIIDAGFMRPNKQPKYLLQLNATEKMIPRAKILIATVAGRTVVYDFADLAFQELRNNFDLSIDEQEIKPGRQIELSMSGRPGAYVGLAAYDKALLLFNKNHDLFWEDIGQVFDGFHAINENEFDIFHSLGLFARTLDDILFDSANEKTGRNALQSGKPIGKLVSYRTNFQESWLWKNVSIGRSGSRKLIEVVPDTTTSWYLTGFSIDPVYGLGIIKKPIQFTTVQPFYIVENLPYSIKRGEAVVLQFTLFNNLGAEYIADVTLYNVANQTEFVGRPNTDLSYTKSVSVPPKVGVPISFLIKARKLGEMAVRVKASIMLGHETDALEKVIRVMPESLVQPRMDTRFFCFDDHKNQTFPINLDINKKADSGSTKIEFRLNPNLLTTVIKNLDHLLGVPTGCGEQNMVKFVPNILVLDYLHAIGSKEQHLIDKATNLLRQGYQNQMRYRQTDGSFGLWETTNGSVFLTAFVGTSMQTAVKYISDIDAAMVEKALDWLASKQHFSGRFDKAGAEYHKEMQGGLRNGVALTSYVLMALLENDIAKAKHAEVIQKGMTYLSNQFGSINNAYDLSIATYAMMLNGHTMKEEALNKLIDMSFIDADKNERFWNTTNPIETTAYALLSFVMAEKYTDGIPVMNWLVNQRYVTGSFPSTQDTFVGLKALTKMAEKISPSRNDYTVQLKYKKSAKYFKINSEQIDVENFVDIPEDTKKLEINVGGIGFGLLEVVYQFNLNLVNFENRFQLDLEKQNTGSDYELRLKVCASYIPQLTDRRSNMALIEVTLPSGYVVDRNPISEQTKVNPIQKTEIRYGGTSVVLYYDNMGSERNCFTLTAYRRFKVALKRPAYVVVYDYYNTNLNAIKVYEVDKQNLCEICDEEDCPAECGGHHHHHH” the “soluble on expression in E. coli” value was “soluble”. In the case of “MFQIQETIVSPDLFDKYFVCDYATCQGICCVEGESGAPLEAGEADLLRKYLDAVRDMLSSEALEVIDKQGVSYLDVEGDEVTSIVNGRDCVFTTYDEKGNCLCAFERAYRLGKIDFPKPLSCHLYPVRLTRYSSFTAVNYHRWEICRCAEALGRQMGTPLYRFLKEPLIRAFGKEWYKEMEEIAALLEQNPLKR”, the “soluble on expression in E. coli” value is reported as “not soluble”. With “QVPENNGYAGDKPLKTYIHDTVKGDLYYTAGSSYYSGKAYPGDTYKVNHNFDLPEGATIKLARLYNYWTWSSEGMEGRNPEMKLSFDGQELEPDREYSDRKGWGSYDYPSGTWAYDVSSCITGSGTFTTEIENTGPDASCVCIEGVGLLIVYEDPDGRNIEYWINEGADELNSQMDENGSPLYYTAPNQTICEMLRPALQFPIRSATLWTITQSGNWENNTLIVNDKKFTGICDGKPYPDLEIDKRNVTDCLKAGENIILFQASGDYVISSGSFLVVEKDLLAEESKSSTEEASEKSEETGSTPETSGTESKKAPGFGFVFAPALLTGRKLVSGLRDK” the “soluble on expression in E. coli” value was “not soluble”. For “MAFLLALDQGTTSSRAILFTLEGRPVAVAKREFRQLYPKPGWVEHDPLEIWETTLWAAREVLRRAGAEAGEVLALGITNQRETTLLWDRKTGKPLHNAIVWQDRRTTPLCEALRAKGLEPLFRERTGLLFDPYFSGTKLVWLLENVPGLKARAEGGGVAFGTVDTWLIWNLTGGKVHATDPTNASRTLLFNLHTLAWDPELLEALGIPAALLPEVRPSDGDFGETLPELLGAPVPIRGVLGDQQAALFGQAALGGGEGKCTYGTGAFLLLNTGKRPVLSEKGLLATVAWSLGGRATYALEGSLFVAGAAVGWLKEVGLIRESAEVEALAASVEDTGDVYFVPAFTGLGAPYWDPYARGTLLGLTRGTSRAHLARAALEGVAFQVRDVVLAMEEEAGVRLKVLKADGGMAQNRLFLKIQADLLGVPVAVPEVTETTALGAALMAGVGAGALSPEDVAGRFREAERFLPTMPEGRREALYRRWREAVERAKGWAREG”, the “soluble on expression in E. coli” value was “soluble”. For “MSELGAKYQQLQNELEEFIVARQKLETQLQENKIVNEEFDQLEEDTPVYKLTGNVLLPVEQSEARTNVDKRLEFIETEITRCEKNIRDKQEELEKMRSELIKLNNTAASTGPGR”, the “soluble on expression in E. coli” value was “soluble”. In the case of “AQVSNGSNSGQMEEINTKEVAQRITTELKRYSIPQAIFAQRVLCRSQGTLSDLLRNPKPWSKLKSGRETFRRMWKWLQEPEFQRMSALRLAACKRKEQEHGKDRGNT”, the “soluble on expression in E. coli” value is reported as “soluble”. In the case of “GPGSMDRSVAESIRQQSDDLRDELKELEQWEDAMQAREMAKAQRKVPLPTSVAAAEPPIRGTVPSLKEAIRQQQQQARATGTSGDTAAEAIADPIQQAKDKGNVLFQSGHLQEAVAAYTVGIDLDPASATTHVLYANRAMCYLKLGQWTAAEKDATTCVHMNTGYAKAYYRRAVARKQLGKLREARADLEAVLALAPKDVSAQQEMESVTKALQAKRAAESQATTTATTTKKKRIVIEEVDSEGDEAAAEAPATSASKLSTEEEELHQACIEEDMRRLAAARKANEEQVRQEAQREAAAQAKRQRRHERVEIIEEAEHSPAEKKKMAPSPATSSPVVEQTPPLSTSSPPSSSSPSPTSAATRPRARPPIAKESLTAPKSFSEFERRFRELVQQPDLRDHYVRLLDPATMAKLFGSNMSPEMLLGILQAIKTFNATTALQYAKGLCQVSRVEDVALFFDAQEKAVVQDVLDLLRSAPGTPAKDIQQIERKLKPL”, the “soluble on expression in E. coli” value is reported as “soluble”. In the case of “MEFKLHNGSGGLCCKSCSRQDKKLNTYDWLADIPGNAEESDMVEVQFKNTRKGYYRNSNKIKLEKGDIVAVEATPGHDIGTVTLTGRLVPLQMKKANFKQDAEIKRIYRKAKAVDMEKYEEAKAKEHTTMIRARQIAASLNLDMKIGDVEYQGDGNKAIFYYIADERVDFRQLIKVLAEAFRVRIEMKQIGARQEAGRIGGIGPCGRELCCATWMTSFVSVSTSAARYQDISLNPQKLAGQCAKLKCCLNYEVDCYVEAQKRLPSREIELETKDGTYYFFKADILSNQISYSTDKNFAANLVTISGKRAFEVIGLNKRGIKPDSLLEAERKPEPKKPVDLLEQESLTRFDRDRRRNAKDGNGKDEGGNGNRKKKKKNNNHPQQATNGETQSSQPTPINAQENNGSQPVQNQQRTRGERPKNNNRNNNQPRKNNESREPRSNENRETRKNEPREQRPPREPRGPRNNEQPKRIEKAQENEKPAQELEHHHHHH”, the “soluble on expression in E. coli” value is reported as “not soluble”. In the case of “MGSDKIHHHHHHMTQALTKQVIFDEFIDWLPENSEGRYELHDGVIVEMPKPSGKHSNVIGFLIEELFLSIIQIGKRGIWTIPRESIVKPNSKSGYEPDIIVLDQEALSNEPRWERESIIENPASVKLIVEVVSTAVASSRETRPTHCLTNWRDDYYKKRADYVRVASRREEMGIPEYWIVDYAGLGGRAFIGNPKQPTISVNYLIEGEYQVSQFRQGERIQSVTFPELDLTVDQIFQVG”, the “soluble on expression in E. coli” value is reported as “not soluble”. With “MGSDKIHHHHHHMKKLLLPLIIMLLVLAACGNQGEKNNKAETKSYKMDDGKTVDIPKDPKRIAVVAPTYAGGLKKLGANIVAVNQQVDQSKVLKDKFKGVTKIGDGDVEKVAKEKPDLIIVYSTDKDIKKYQKVAPTVVVDYNKHKYLEQQEMLGKIVGKEDKVKAWKKDWEETTAKDGKEIKKAIGQDATVSLFDEFDKKLYTYGDNWGRGGEVLYQAFGLKMQPEQQKLTAKAGWAEVKQEEIEKYAGDYIVSTSEGKPTPGYESTNMWKNLKATKEGHIVKVDAGTYWYNDPYTLDFMRKDLKEKLIKAAK” the “soluble on expression in E. coli” value was “not soluble”. With “MASKRIIRMSDLLHTTPVFNRGYRFQWEQAQQSYVILYPEGLVRLNESATLILKQIDGKLTVHDIIQNLSAQFPDATGLDQDIVEFLKQAESRQWICLQ” the “soluble on expression in E. coli” value was “not soluble”. In the case of “MSSATTNSKIIHATRQHVYEALTQKEALEFWLAPDQMTGKIHDFDLSVGGGYTMSLFYTDNSIKGKTSGNEDRYTSTFIELQPYEKVVHSITFQSEKKEFEEAMIMEVFLEEKGKDVTNVTIFFKNIPAGITPEDNEAGTKESLDKLARYLENNNRSASEKKLEHHHHHH”, the “soluble on expression in E. coli” value is reported as “soluble”.

From the DeepSol protein solubility set
